Results from patent publication US7977313B2, “Methods and compositions for promoting localization of pharmaceutically active agents to bone” (Affinergy, Inc., priority 2007, dated 2011).
Read-outs that look alike come from different tables or passages of the source. Values belong to the compound of their own block, whether it stands above or below them. Where a SMILES comes first, the peptide text is derived from it. The star is where a group is joined. Biotin = O=C1N[C@H]2[C@H](CS[C@H]2CCCCC(=O)*)N1

How the values were obtained:
[1] = tested on: human adipose-derived stem cells; test: Binding to adipose-derived stem cells
Source text: In another embodiment, the pharmaceutically active agent comprises a cell. Thus, a coating composition embodiment includes at least one peptide having binding specificity to bone coupled to at least one peptide having binding specificity for cells. Such coating composition may further include cells bound to the at least one peptide having binding specificity for the cells. For example, RGDX peptides wherein X is any amino acid (SEQ ID NO:119) have been described as binding stem cells, mesenchymal stem cells, and osteoblasts.

BMP14 = target: T1, BMP14 (Homo sapiens, UniProt P43026); test: ELISA-format binding to BMP family members; details: ELISA-format assay
T1 sequence (P43026 382-501): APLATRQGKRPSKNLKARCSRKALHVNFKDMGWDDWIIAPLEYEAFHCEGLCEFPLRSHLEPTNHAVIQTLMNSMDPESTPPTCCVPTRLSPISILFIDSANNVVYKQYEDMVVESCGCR
Procedure: (§1) Exemplary peptides were tested for their ability to bind with specificity to members of the BMP family in an ELISA-format assay. […] For example, BMP2-mediates transdifferentiation of C2C12 myoblasts into osteoblasts; and when treated with BMP-2, the alkaline phosphatase activity in C2C12 myoblasts was induced.

BMP2 = target: T2, BMP2 (Homo sapiens, UniProt P12643); test: ELISA-format binding to BMP family members; details: ELISA-format assay
T2 sequence (P12643 283-396): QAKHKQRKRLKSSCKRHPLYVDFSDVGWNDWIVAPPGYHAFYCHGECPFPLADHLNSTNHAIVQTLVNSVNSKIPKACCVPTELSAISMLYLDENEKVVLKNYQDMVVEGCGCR
Procedure: as §1

BMP4 = target: T3, BMP4 (Homo sapiens, UniProt P12644); test: ELISA-format binding to BMP family members; details: ELISA-format assay
T3 sequence (P12644 293-408): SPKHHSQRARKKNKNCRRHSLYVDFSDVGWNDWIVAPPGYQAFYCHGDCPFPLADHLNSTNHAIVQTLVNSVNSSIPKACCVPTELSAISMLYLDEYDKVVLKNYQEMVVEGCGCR
Procedure: as §1

BMP5 = target: T4, BMP5 (Homo sapiens, UniProt P22003); test: ELISA-format binding to BMP family members; details: ELISA-format assay
T4 sequence (P22003 317-454): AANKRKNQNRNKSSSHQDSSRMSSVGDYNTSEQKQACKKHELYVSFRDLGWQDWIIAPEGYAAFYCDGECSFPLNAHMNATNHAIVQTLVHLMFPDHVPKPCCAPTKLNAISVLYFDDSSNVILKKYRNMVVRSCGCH
Procedure: as §1

BMP7 = target: T5, BMP7 (Homo sapiens, UniProt P18075); test: ELISA-format binding to BMP family members; details: ELISA-format assay
T5 sequence (P18075 293-431): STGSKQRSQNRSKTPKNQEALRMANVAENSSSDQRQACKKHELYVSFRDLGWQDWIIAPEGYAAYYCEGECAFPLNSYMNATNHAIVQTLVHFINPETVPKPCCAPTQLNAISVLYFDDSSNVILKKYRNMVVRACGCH
Procedure: as §1

stem cells = details: cited from earlier work
human growth hormone = human growth hormone (Homo sapiens, UniProt P01241); details: cited from earlier work
[2] = target: demineralized bone matrix (DBM); test: Biotinylated peptide binding to demineralized bone matrix (ELISA-type, streptavidin-alkaline phosphatase/pNPP); set-up: species or system human
Procedure: Relative binding strengths of the peptides to bone, also used as a measure of binding specificity, were determined by testing serial dilutions of the peptide for binding to bone, as represented by DBM. Plotting the absorbance observed across the concentration range for each peptide sequence yielded a binding curve of the peptides to its target substrate from which can be determined an EC50. The goal of the screenings and selections was to identify one or more peptides that bind to the selected substrate with binding specificity, with an EC50 of less than or equal to about 10 μM, and for some embodiments, in the nanomolar range (<1 μM).
As a specific example, DBM was placed in a microtiter plate at a concentration of 3 mg equivalents per well, and then the wells were blocked with buffer containing 1% BSA for 1 hour at room temperature. The buffer containing 1% BSA was then aspirated from each well, and added to the wells were the serial dilutions of biotinylated peptide. The microtiter plates were incubated for 1 hour at room temperature on a plate shaker. The DBM was then allowed to settle, and the buffer was then aspirated from the wells. The DBM was washed three times with buffer-T, and then streptavidin-alkaline phosphatase was added. The microtiter plates were incubated for 1 hour at room temperature on a plate shaker. The DBM was then allowed to settle, and the buffer was then aspirated from the wells. The DBM was washed three times with buffer-T, pNPP (p-nitrophenyl phosphate) was used to develop the assay, and the absorbance was recorded at 405 nm. An estimate of the relative affinity (binding specificity, EC50) of a peptide for bone can be made by determining the concentration of peptide that gives one-half the maximal signal in the assay.
Example 1 illustrates methods to determine the relative binding strengths of peptide to bone. […] A biotin molecule was linked to the C-terminal lysine. Also shown in Table 3 are the relative binding strengths expressed as EC50 (μM) to bone as represented by DBM of human origin. It is noted that the EC50 values were the same or substantially similar when DBM of rabbit origin was used.
Relative binding strength embodiments of the compositions to bone, also used as a measure of binding specificity, were determined by testing serial dilutions of the composition for binding to bone, as described in Example 1 Section B. Plotting the absorbance observed across the concentration range for each composition yielded a binding curve and rough dissociation constant of the composition for bone. Similar to a peptide having binding specificity for bone from which the composition is made, one property of the composition embodiments is that they bind to bone with binding specificity as measured by an EC50 of less than or equal to about 10 μM, and for some embodiments, in the nanomolar range (<1 μM). Using the methods outlined in Example 1B herein, assayed were the relative binding strengths of […] illustrative composition embodiments which include the amino acid sequences shown in SEQ ID NOs: 137, 138, 139, 140, 141 & 142, see Table 7, and synthesized to include a C-terminal amino linker which was biotinylated to facilitate determination of the relative binding strengths to bone. Shown in Table 8 are the relative binding strengths of composition embodiments to bone, as represented by DBM, expressed as EC50 (in μM).

[3] = target: demineralized cortical bone (DCB); test: Biotinylated peptide binding to demineralized cortical bone
Procedure: (§2) Relative binding strengths of the peptides to bone, also used as a measure of binding specificity, were determined by testing serial dilutions of the peptide for binding to bone, as represented by DBM. Plotting the absorbance observed across the concentration range for each peptide sequence yielded a binding curve of the peptides to its target substrate from which can be determined an EC50. The goal of the screenings and selections was to identify one or more peptides that bind to the selected substrate with binding specificity, with an EC50 of less than or equal to about 10 μM, and for some embodiments, in the nanomolar range (<1 μM). […] As a specific example, DBM was placed in a microtiter plate at a concentration of 3 mg equivalents per well, and then the wells were blocked with buffer containing 1% BSA for 1 hour at room temperature. The buffer containing 1% BSA was then aspirated from each well, and added to the wells were the serial dilutions of biotinylated peptide. The microtiter plates were incubated for 1 hour at room temperature on a plate shaker. The DBM was then allowed to settle, and the buffer was then aspirated from the wells. The DBM was washed three times with buffer-T, and then streptavidin-alkaline phosphatase was added. The microtiter plates were incubated for 1 hour at room temperature on a plate shaker. The DBM was then allowed to settle, and the buffer was then aspirated from the wells. The DBM was washed three times with buffer-T, pNPP (p-nitrophenyl phosphate) was used to develop the assay, and the absorbance was recorded at 405 nm. An estimate of the relative affinity (binding specificity, EC50) of a peptide for bone can be made by determining the concentration of peptide that gives one-half the maximal signal in the assay. Using the methodology illustrated in Example 1, the peptides illustrated in Table 3 were also tested for relative binding strength to demineralized cortical bone, and to cancellous bone, additional evidence of binding specificity for bone.

cancellous bone (CNB) = test: Biotinylated peptide binding to cancellous bone
Procedure: as §2

[4] = phage display; cited from earlier work
[5] = DBM of human origin, biotinylated peptide, read-out: Binding specificity for bone (e.g., DBM) EC50
[6] = demineralized bone matrix, read-out: EC50 (μM) for DBM

Chain of human growth hormone (P01241 27-217): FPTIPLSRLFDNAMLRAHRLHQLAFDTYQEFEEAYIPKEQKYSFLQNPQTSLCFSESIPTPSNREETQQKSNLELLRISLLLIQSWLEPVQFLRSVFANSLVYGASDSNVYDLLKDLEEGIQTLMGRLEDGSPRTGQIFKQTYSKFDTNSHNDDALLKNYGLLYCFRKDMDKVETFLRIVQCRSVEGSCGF

Compound: 121 (SSSCQHVSLLRPSAALGPDNCSR) [compound 121]
Binding specificity for human adipose-derived stem cells [1]: has binding specificity

Binding specificity for BMP14 (BMP14): displayed binding specificity
Binding specificity for BMP2 (BMP2): displayed binding specificity
Binding specificity for BMP4 (BMP4): displayed binding specificity
Binding specificity for BMP5 (BMP5): displayed binding specificity
Binding specificity for BMP7 (BMP7): displayed binding specificity
Compound: 91 (GGGAWEAFSSLSGSRV) [compound 91]

Binding specificity for BMP14 (BMP14): showed binding specificity
Binding specificity for BMP2 (BMP2): showed binding specificity
Binding specificity for BMP4 (BMP4): showed binding specificity
Binding specificity for BMP7 (BMP7): showed binding specificity
Compound: 58 (SSWEVFSSLESGSVGAGAGSR) [compound 58]

Binding specificity for BMP14 (BMP14): showed binding specificity
Binding specificity for BMP2 (BMP2): showed binding specificity
Binding specificity for BMP4 (BMP4): showed binding specificity
Binding specificity for BMP7 (BMP7): showed binding specificity
Compound: 118 (GGALGFPLKGEVVEGWA) [compound 118]

Compound: 120 (ALPSTSSQMPQL) [compound 120]
Binding to stem cells (stem cells): binding to stem cells

Compound: 124 (VMNV) [compound 124]
Binding to human growth hormone (human growth hormone): found to bind to human growth hormone

EC50 [2, 5]: < 1 µM
EC50 [2, 6]: < 1 µM
EC50 [3]: < 1 µM
EC50 (cancellous bone (CNB)): < 1 µM
Compound: CC[C@H](C)[C@H](NC(=O)[C@H](CC(=O)O)NC(=O)[C@H](Cc1ccccc1)NC(=O)[C@@H](N)CO)C(=O)N[C@@H](CC(=O)O)C(=O)N[C@@H](Cc1c[nH]c2ccccc12)C(=O)N[C@@H](CO)C(=O)NCC(=O)N[C@@H](CCSC)C(=O)N[C@@H](CCCNC(=N)N)C(=O)N[C@@H](CO)C(=O)N[C@@H](Cc1c[nH]c2ccccc12)C(=O)N[C@@H](Cc1c[nH]c2ccccc12)C(=O)NCC(=O)N[C@@H](CO)C(=O)N[C@@H](CCCNC(=N)N)C(=O)NCC(=O)N[C@@H](CO)C(=O)N[C@@H](CO)C(=O)NCC(=O)N[C@@H](CCCCNC(=O)CCCC[C@@H]1SC[C@@H]2NC(=O)N[C@@H]21)C(=O)O [compound 44] (H-SFDIDWSGMRSWWGSRGSSGK(Biotin)-OH)

Binding specificity for BMP14 (BMP14): showed binding specificity
Binding specificity for BMP2 (BMP2): showed binding specificity
Binding specificity for BMP4 (BMP4): showed binding specificity
Binding specificity for BMP7 (BMP7): showed binding specificity
Compound: 93 (SSSVDLYFPLKGDVVSR) [compound 93]

EC50 [2, 5]: < 1 µM
EC50 [2, 6]: < 1 µM
EC50 [3]: < 1 µM
EC50 (cancellous bone (CNB)): < 1 µM
Compound: CC[C@H](C)[C@H](NC(=O)[C@@H](N)CO)C(=O)N[C@@H](Cc1ccccc1)C(=O)N[C@@H](CO)C(=O)N[C@H](C(=O)N[C@@H](Cc1c[nH]c2ccccc12)C(=O)N[C@@H](CC(N)=O)C(=O)N1CCC[C@H]1C(=O)N[C@@H](Cc1c[nH]c2ccccc12)C(=O)N[C@@H](CO)C(=O)N1CCC[C@H]1C(=O)N[C@@H](Cc1ccc(O)cc1)C(=O)N[C@@H](CO)C(=O)N[C@H](C(=O)N[C@@H](CO)C(=O)N[C@@H](CCCNC(=N)N)C(=O)NCC(=O)N[C@@H](CO)C(=O)N[C@@H](CO)C(=O)NCC(=O)N[C@@H](CCCCNC(=O)CCCC[C@@H]1SC[C@@H]2NC(=O)N[C@@H]21)C(=O)O)C(C)C)[C@@H](C)O [compound 40] (H-SIFSTWNPWSPYSVSRGSSGK(Biotin)-OH)

Compound: 123 (HTPHPDASIQGV) [compound 123]
Binding to paclitaxel [4]: bind to paclitaxel

EC50 [2, 5]: < 1 µM
EC50 [2, 6]: < 1 µM
EC50 [3]: < 1 µM
EC50 (cancellous bone (CNB)): ≤ 1 µM
Compound: CC(C)C[C@H](NC(=O)[C@@H](N)CO)C(=O)NCC(=O)N[C@H](C(=O)N[C@@H](Cc1ccccc1)C(=O)N[C@@H](Cc1c[nH]c2ccccc12)C(=O)N[C@@H](CO)C(=O)N[C@@H](CO)C(=O)N[C@H](C(=O)N[C@@H](Cc1c[nH]c2ccccc12)C(=O)N[C@@H](CCCNC(=N)N)C(=O)NCC(=O)N[C@H](C(=O)N[C@@H](CC(=O)O)C(=O)N[C@@H](C)C(=O)NCC(=O)NCC(=O)N[C@@H](CCC(=O)O)C(=O)N[C@@H](CO)C(=O)N[C@@H](CCCNC(=N)N)C(=O)NCC(=O)N[C@@H](CO)C(=O)N[C@@H](CO)C(=O)NCC(=O)N[C@@H](CCCCNC(=O)CCCC[C@@H]1SC[C@@H]2NC(=O)N[C@@H]21)C(=O)O)C(C)C)C(C)C)[C@@H](C)O [compound 43] (H-SLGTFWSSVWRGVDAGGESRGSSGK(Biotin)-OH)
